Results taken from PMC10694664 (The Journal of Biological Chemistry, 2023).
Substitutions are numbered along the chain they refer to. Names may count otherwise.

B1: Fis1 N-terminal arm peptide (peptide)
peptide: Ac-MEAVLNEL-NH2
B2: Fis1 (human Fis1 residues 1-125, with the N-terminal arm) (domain or fragment)
chain: MEAVLNELVSVEDLLKFEKKFQSEKAAGSVSKSTQFEYAWCLVRSKYNDDIRKGIVLLEELLPKGSKEEQRDYVFYLAVGNYRLKEYEKALKYVRGLLQTEPQNNQAKELERLIDKAMKKDGLVG
B3: Fis1 E7A (human Fis1 residues 1-125 with E7A) (domain or fragment)
chain: B2 chain with E7A
B4: Cy5-labelled Fis1ΔN (residues 9-125) (domain or fragment)
chain: VSVEDLLKFEKKFQSEKAAGSVSKSTQFEYAWCLVRSKYNDDIRKGIVLLEELLPKGSKEEQRDYVFYLAVGNYRLKEYEKALKYVRGLLQTEPQNNQAKELERLIDKAMKKDGLVG
B5: Fis1ΔN (human Fis1 residues 9-125, lacking the N-terminal arm) (domain or fragment)
chain: B4 chain

Tests used:
[1] = target: B5; assay: NMR titration
[2] = target: Cy5-labelled Drp1 (isoform 1) (human, UniProt O00429 1-736); assay: MST
[3] = target: T1, Dynamin-related protein 1 (Drp1) isoform 1, unlabelled (human, UniProt O00429 1-736); assay: MST
[4] = target: T1, Dynamin-related protein 1 (Drp1) …; assay: NMR titration

Cy5-labelled Drp1 (isoform 1), sequence (O00429 whole entry, canonical isoform): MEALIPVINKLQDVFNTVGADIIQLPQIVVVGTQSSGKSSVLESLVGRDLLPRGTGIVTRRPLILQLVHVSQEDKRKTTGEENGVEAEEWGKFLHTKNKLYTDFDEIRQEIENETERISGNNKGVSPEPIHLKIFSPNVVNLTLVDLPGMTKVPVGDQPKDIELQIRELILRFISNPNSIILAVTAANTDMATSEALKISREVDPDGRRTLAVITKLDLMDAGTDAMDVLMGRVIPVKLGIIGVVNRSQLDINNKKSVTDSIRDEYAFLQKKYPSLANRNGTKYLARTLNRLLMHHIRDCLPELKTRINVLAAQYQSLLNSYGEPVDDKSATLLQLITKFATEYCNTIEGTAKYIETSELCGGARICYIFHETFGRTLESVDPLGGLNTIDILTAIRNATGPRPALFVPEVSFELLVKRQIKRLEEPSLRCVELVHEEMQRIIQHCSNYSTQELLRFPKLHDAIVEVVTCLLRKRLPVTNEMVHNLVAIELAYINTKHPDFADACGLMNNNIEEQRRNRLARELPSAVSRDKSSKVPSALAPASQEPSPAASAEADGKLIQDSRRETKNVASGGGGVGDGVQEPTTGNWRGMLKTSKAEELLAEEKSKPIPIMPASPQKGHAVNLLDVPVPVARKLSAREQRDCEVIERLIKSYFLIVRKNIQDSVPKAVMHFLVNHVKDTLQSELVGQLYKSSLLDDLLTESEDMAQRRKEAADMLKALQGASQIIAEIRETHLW
T1 sequence (O00429 whole entry, canonical isoform): as above

Binder: B1
- Kd [1]: ≥ 5000 µM

Binder: B2
- Kd [2]: 13 ± 3 µM

Binder: B3
- Kd [2]: 7 ± 1 µM

Binder: B4
- Kd [3]: 15 µM

Binder: B5
- Kd [4]: 26 to 68 µM
